Data on 32 substances can be found in US7364741.

Test [1] addresses HLA-A2.1 molecules expressed by 174CEM.T2 cells (human). As to the kind of experiment: T2 HLA-A2.1 stabilisation, flow cytometry (BB7.2), peptide 200 ug/ml.
The target of test [2] is HLA-A1 molecules isolated from the EBV transformed cell line Steinlin (human).
Test [3] deals with HLA-A3.2 molecules isolated from the EBV transformed cell line GM3107 (human).
For test [4], the target named is HLA-A11.2 molecules isolated from the cell line BVR (human).
Test [5] addresses HLA-A24 molecules isolated from the EBV transformed cell line KT3 (human).
In test [6] the target is HLA-A2.1 molecules isolated from the EBV transformed cell line JY (human).

As for “[…] (residues 25-33 of HPV16 protein E6) (peptide; other documents disagree on this pair)”, in test [1], the FI (Fluorescence Index) was 0.6 and the MF (mean fluorescence) stood at 108. In the same order, the values of “[…] (residues 82-90 of HPV16 protein E7) (peptide; other documents disagree on this pair)” are 0.8 and 119.

On to “… (residues 19-27 of HPV16 protein E7), synthesized with alanine instead of cysteine (peptide; other documents disagree on this pair)”, for which, in test [2], the binding ratio to standard came out at 0.023. “… (residues 33-41 of HPV16 protein E6), synthesized with alanine instead of cysteine (peptide; other documents disagree on this pair)”: the binding ratio to standard came out at 1.5 in test [3] and 6.7 in test [4]. In the same order, the values of “… (residues 37-45 of HPV16 protein E6) with alanine instead of cysteine (peptide; other documents disagree on this pair)” are 0.032 and 0.045. On to “… (residues 38-46 of HPV16 protein E6), synthesized with alanine instead of cysteine (peptide; other documents disagree on this pair)”, for which the figures for the binding ratio to standard in test [3], in test [5] and in test [4] were 0.0012, 0.0011 and 0.0022, respectively. “… (residues 51-59 of HPV16 protein E7), synthesized with alanine instead of cysteine (peptide; other documents disagree on this pair)”: the results for the binding ratio to standard in test [3] and in test [4] were 0.026 and 0.001, respectively.

Turning to “… (residues 52-60 of HPV16 protein E6), synthesized with alanine instead of cysteine (peptide; other documents disagree on this pair)”, the binding ratio to standard in test [6] is 0.37. Take “… (residues 52-60 of HPV16 protein E7), synthesized with alanine instead of cysteine (peptide; other documents disagree on this pair)”: the binding ratio to standard amounted to 0.0067 in test [3] and 0.006 in test [4].

Consider “… (residues 58-66 of HPV16 protein E7), synthesized with alanine instead of cysteine (peptide; other documents disagree on this pair)”, for which the binding ratio to standard in test [3] was found to be 0.0016; in test [4], 0.011. Consider “… (residues 60-68 of HPV16 protein E7), synthesized with alanine instead of cysteine (peptide; other documents disagree on this pair)”, for which the binding ratio to standard in test [3] turned out to be 0.0012. As to “… (residues 66-74 of HPV16 protein E6), synthesized with alanine instead of cysteine (peptide; other documents disagree on this pair)”, the binding ratio to standard in test [5] was 0.0055. Regarding “… (residues 67-75 of HPV16 protein E6), synthesized with alanine instead of cysteine (peptide; other documents disagree on this pair)”, the values for the binding ratio to standard in test [3] and in test [4] were 0.0012 and 0.0074, respectively. “… (residues 68-76 of HPV16 protein E6), synthesized with alanine instead of cysteine (peptide; other documents disagree on this pair)”: the binding ratio to standard in test [3] is 0.0056; in test [4], 0.0037. For “… (residues 69-77 of HPV16 protein E6), synthesized with alanine instead of cysteine (peptide; other documents disagree on this pair)” the same measures were 0.0025 and 0.003. Turning to “… (residues 72-80 of HPV16 protein E6), synthesized with alanine instead of cysteine (peptide; other documents disagree on this pair)”, in test [5], the binding ratio to standard was 0.11. As to “… (residues 79-87 of HPV16 protein E6) with alanine instead of cysteine (peptide; other documents disagree on this pair)”, the values for the binding ratio to standard in test [3] and in test [4] were 0.0044 and 0.0076, respectively. In the same order, the values of “… (residues 80-88 of HPV16 protein E6), synthesized with alanine instead of cysteine (peptide; other documents disagree on this pair)” are 0.0064 and 0.43. Turning to “… (residues 82-90 of HPV16 protein E6), synthesized with alanine instead of cysteine (peptide; other documents disagree on this pair)”, the binding ratio to standard in test [5] was determined as 0.046. On to “… (residues 84-92 of HPV16 protein E6), synthesized with alanine instead of cysteine (peptide; other documents disagree on this pair)”, for which the binding ratio to standard in test [3] came to 0.0036. In the case of “… (residues 85-93 of HPV16 protein E6), synthesized with alanine instead of cysteine (peptide; other documents disagree on this pair)”, the binding ratio to standard in test [5] amounted to 0.0037. For the substance “… (residues 86-94 of HPV16 protein E7) (peptide)”, in test [1], the FI (Fluorescence Index) was 2.5 and the MF (mean fluorescence) was determined as 228. In the case of “… (residues 87-95 of HPV16 protein E6), synthesized with alanine instead of cysteine (peptide; other documents disagree on this pair)”, the binding ratio to standard in test [5] is 0.12.

As for “… (residues 90-98 of HPV16 protein E7), synthesized with alanine instead of cysteine (peptide; other documents disagree on this pair)”, the binding ratio to standard in test [4] was 0.0012.

As to “… (residues 97-105 of HPV16 protein E6), synthesized with alanine instead of cysteine (peptide; other documents disagree on this pair)”, in test [3], the binding ratio to standard turned out to be 0.0045. On to “… (residues 107-115 of HPV16 protein E6), synthesized with alanine instead of cysteine (peptide; other documents disagree on this pair)”, for which the figures for the binding ratio to standard in test [3] and in test [4] were 3.7 and 0.012, respectively. Consider “… (residues 139-147 of HPV16 protein E6), synthesized with alanine instead of cysteine (peptide; other documents disagree on this pair)”, for which, in test [2], the binding ratio to standard stood at 0.02. Turning to “… (residues 140-148 of HPV16 protein E6), synthesized with alanine instead of cysteine (peptide; other documents disagree on this pair)”, the binding ratio to standard in test [4] is 0.0012. For “… (residues 143-151 of HPV16 protein E6), synthesized with alanine instead of cysteine (peptide; other documents disagree on this pair)”, the binding ratio to standard in test [3] was determined as 0.18; in test [4] it was 0.0084. For the substance “… (residues 144-152 of HPV16 protein E6), synthesized with alanine instead of cysteine (peptide; other documents disagree on this pair)”, the binding ratio to standard in test [2] is 0.019. As to “… (residues 145-153 of HPV16 protein E6), synthesized with alanine instead of cysteine (peptide; other documents disagree on this pair)”, the binding ratio to standard in test [3] worked out at 0.02. In the case of “… (residues 146-154 of HPV16 protein E6), synthesized with alanine instead of cysteine (peptide; other documents disagree on this pair)”, the binding ratio to standard in test [3] stood at 0.002.
